Experiments:
[1] = target: recombinant human integrin αvβ6 (human) (UniProt P18564); assay: blocking of adhesion (A590) of Cho cells expressing GARP/LTGFB1 to immobilized αvβ6; antibody concentration varied; unit taken from the axis log[Agonist], (ug/ml)
[2] = target: recombinant human integrin αvβ6 (human) (UniProt P18564)
[3] = target: recombinant human integrin αvβ6 (human) (UniProt P18564); assay: competition of 3G9 with RGD3 for binding to αvβ6 (sheet title); y axis 'Relative Inhibition of avb6 binding to TGFb3 peptide'; signal falls from about 1.03 to about 0.04 at log 4

Chain of recombinant human integrin αvβ6 (human) (chain, as listed by the source limits assumed, chain 1 of 2): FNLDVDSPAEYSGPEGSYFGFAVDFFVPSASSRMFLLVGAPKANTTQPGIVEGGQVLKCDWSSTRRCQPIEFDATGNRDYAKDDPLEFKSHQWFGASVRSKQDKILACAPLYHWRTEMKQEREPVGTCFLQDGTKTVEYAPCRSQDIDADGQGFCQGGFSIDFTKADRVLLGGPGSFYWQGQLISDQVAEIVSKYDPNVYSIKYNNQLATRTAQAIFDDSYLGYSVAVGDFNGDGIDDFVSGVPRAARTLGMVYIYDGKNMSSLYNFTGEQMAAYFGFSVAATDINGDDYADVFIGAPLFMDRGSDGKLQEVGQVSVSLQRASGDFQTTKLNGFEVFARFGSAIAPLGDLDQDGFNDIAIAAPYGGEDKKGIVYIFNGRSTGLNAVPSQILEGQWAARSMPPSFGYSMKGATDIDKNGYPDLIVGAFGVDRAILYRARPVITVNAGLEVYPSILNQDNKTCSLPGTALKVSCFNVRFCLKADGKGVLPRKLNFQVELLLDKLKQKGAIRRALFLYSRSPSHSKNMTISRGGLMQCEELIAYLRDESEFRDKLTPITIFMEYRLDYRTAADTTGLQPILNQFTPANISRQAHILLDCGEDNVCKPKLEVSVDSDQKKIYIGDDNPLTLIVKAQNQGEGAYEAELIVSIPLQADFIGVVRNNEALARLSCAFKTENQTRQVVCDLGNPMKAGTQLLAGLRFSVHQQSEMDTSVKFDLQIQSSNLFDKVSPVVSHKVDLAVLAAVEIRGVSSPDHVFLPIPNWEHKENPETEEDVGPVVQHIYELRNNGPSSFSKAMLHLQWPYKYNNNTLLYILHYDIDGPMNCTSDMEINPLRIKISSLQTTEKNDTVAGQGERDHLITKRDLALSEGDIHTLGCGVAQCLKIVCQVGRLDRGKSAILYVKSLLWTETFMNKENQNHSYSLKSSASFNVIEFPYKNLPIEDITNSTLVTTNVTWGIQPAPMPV
Chain of recombinant human integrin αvβ6 (human) (P18564 22-707 limits assumed, chain 2 of 2): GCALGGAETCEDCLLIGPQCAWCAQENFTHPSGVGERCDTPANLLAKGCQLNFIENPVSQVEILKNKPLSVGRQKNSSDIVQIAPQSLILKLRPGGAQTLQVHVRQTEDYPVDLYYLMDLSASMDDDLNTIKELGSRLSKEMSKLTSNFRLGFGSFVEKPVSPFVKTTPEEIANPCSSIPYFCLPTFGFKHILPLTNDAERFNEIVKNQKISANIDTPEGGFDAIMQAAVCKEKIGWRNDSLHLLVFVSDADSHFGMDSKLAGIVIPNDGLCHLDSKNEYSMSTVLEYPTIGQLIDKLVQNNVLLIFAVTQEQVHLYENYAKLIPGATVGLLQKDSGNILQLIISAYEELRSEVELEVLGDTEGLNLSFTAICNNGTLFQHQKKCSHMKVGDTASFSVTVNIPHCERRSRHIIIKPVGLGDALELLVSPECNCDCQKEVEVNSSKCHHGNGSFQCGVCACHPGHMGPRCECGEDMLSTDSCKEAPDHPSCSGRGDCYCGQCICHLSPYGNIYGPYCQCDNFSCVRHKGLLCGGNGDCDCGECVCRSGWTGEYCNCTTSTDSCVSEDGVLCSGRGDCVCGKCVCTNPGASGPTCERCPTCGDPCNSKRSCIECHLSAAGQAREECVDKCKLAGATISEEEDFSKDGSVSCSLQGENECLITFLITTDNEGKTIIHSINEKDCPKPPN

EC50 [1]: 0.834 µg/mL
EC50 of inhibition of TGF-β activation (TMLC luciferase reporter) of GARP/LTGFB1 Cho cells on immobilized αvβ6; unit from the axis [2]: 0.922 µg/mL
LogEC50 (Log10 (ng/ml)) [3]: 2.93
Substance: Mab 3G9 (anti-β6) (antibody)

— patent US20210230279A1
